B1: yeast NMT (Saccharomyces cerevisiae S288C) (protein)
chain: MSEEDKAKKLENLLKLLQLNNDDTSKFTQEQKKAMKDHKFWRTQPVKDFDEKVVEEGPIDKPKTPEDISDKPLPLLSSFEWCSIDVDNKKQLEDVFVLLNENYVEDRDAGFRFNYTKEFFNWALKSPGWKKDWHIGVRVKETQKLVAFISAIPVTLGVRGKQVPSVEINFLCVHKQLRSKRLTPVLIKEITRRVNKCDIWHALYTAGIVLPAPVSTCRYTHRPLNWKKLYEVDFTGLPDGHTEEDMIAENALPAKTKTAGLRKLKKEDIDQVFELFKRYQSRFELIQIFTKEEFEHNFIGEESLPLDKQVIFSYVVEQPDGKITDFFSFYSLPFTILNNTKYKDLGIGYLYYYATDADFQFKDRFDPKATKALKTRLCELIYDACILAKNANMDVFNALTSQDNTLFLDDLKFGPGDGFLNFYLFNYRAKPITGGLNPDNSNDIKRRSNVGVVML

Columns and labels:
[1] = 2-octanol/water partition; format: physicochemical
Procedure: For these Examples, each analog synthesized is characterized by ^1 H and ^13 C NMR as well as mass spectroscopy. The analogs are then characterized kinetically as NMT substrates. Briefly, fatty acid analogs are converted to their CoA esters with Pseudomonas CoA ligase and incubated with the iodinated peptide GNAAS[^125 I]YRR and a source of NMT. […] The radiolabelled peptide is then used at concentrations which will lead to 50% enzyme saturation (i.e., at its Km) for the determination of fatty acid analog kinetic characteristics. Representative analogs with sulfur or oxygen in the backbone of the fatty acid chain serve as good substrates for NMT in vitro and will compete for incorporation of ^3 H labelled myri-state into yeast proteins in vivo. In addition, these analogs differ markedly in hydrophobicity from myri-state as measured both by C18 reverse phase HPLC elution profiles and by 2-octanol/water partition coefficients. The analog CH3 O(CH2)11 COOH, for example, partitions into water 20 fold better than myristate. It is believed that these analogs will be incorporated into mammalian acylproteins in vivo and that their incorporation into these proteins will drastically alter protein processing or targeting. […]

[2] = target: T1, yeast NMT (Saccharomyces cerevisiae, UniProt P14743); assay: kinetic characterisation of fatty acid analogs as yeast NMT substrates; format: biochemical
T1 construct: 11,000-fold purified preparation of yeast NMT; endogenous in cells; host or cells: yeast (enzyme purified from yeast, 11,000-fold)
T1 sequence (P14743 1-455): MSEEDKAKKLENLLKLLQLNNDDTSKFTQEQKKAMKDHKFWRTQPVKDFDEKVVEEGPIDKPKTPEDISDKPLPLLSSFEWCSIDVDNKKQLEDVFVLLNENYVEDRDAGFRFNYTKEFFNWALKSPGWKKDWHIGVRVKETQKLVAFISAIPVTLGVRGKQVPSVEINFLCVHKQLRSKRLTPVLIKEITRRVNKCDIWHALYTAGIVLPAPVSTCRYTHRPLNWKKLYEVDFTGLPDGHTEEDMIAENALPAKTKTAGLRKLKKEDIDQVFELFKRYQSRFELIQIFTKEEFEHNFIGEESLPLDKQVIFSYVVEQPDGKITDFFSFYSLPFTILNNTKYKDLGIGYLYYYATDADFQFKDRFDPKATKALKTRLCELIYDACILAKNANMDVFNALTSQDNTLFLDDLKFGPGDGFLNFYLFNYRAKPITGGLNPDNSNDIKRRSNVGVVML
Text: (§1) Similar results were obtained using an 11,000-fold purified preparation of yeast NMT [Towler et al., Proc. Natl. Acad. Sci. USA 84, 2708-2712 (1987)].
(§2) Other illustrative examples of the oxy- and thio-substituted fatty acid analog substrate compounds of the invention were synthesized in Examples 6 to 14 and tested in Example 15 as substrates for the yeast NMT.
(§3) For these Examples, each analog synthesized is characterized by ^1 H and ^13 C NMR as well as mass spectroscopy. The analogs are then characterized kinetically as NMT substrates. Briefly, fatty acid analogs are converted to their CoA esters with Pseudomonas CoA ligase and incubated with the iodinated peptide GNAAS[^125 I]YRR and a source of NMT. […] The radiolabelled peptide is then used at concentrations which will lead to 50% enzyme saturation (i.e., at its Km) for the determination of fatty acid analog kinetic characteristics. Representative analogs with sulfur or oxygen in the backbone of the fatty acid chain serve as good substrates for NMT in vitro and will compete for incorporation of ^3 H labelled myri-state into yeast proteins in vivo. In addition, these analogs differ markedly in hydrophobicity from myri-state as measured both by C18 reverse phase HPLC elution profiles and by 2-octanol/water partition coefficients. The analog CH3 O(CH2)11 COOH, for example, partitions into water 20 fold better than myristate. It is believed that these analogs will be incorporated into mammalian acylproteins in vivo and that their incorporation into these proteins will drastically alter protein processing or targeting. It is further believed that the incorporation of fatty acid analogs of both myristate and palmitate into ester linked and phosphatidyl inositol glycan linked acylproteins will also dramatically alter their properties. Since many viral proteins and oncogenes are acylated, these compounds represent a new class of potential antiviral and antineoplastic agents.

[3] = C18 reverse phase HPLC elution of fatty acyl peptides (hydrophobicity); format: physicochemical; conditions: C18 reverse phase HPLC, acyl derivative of GNAAS[125I]YRR; Table 2
Procedure: The fatty acid analog acyl-peptide eluted 7 minutes earlier than the corresponding myristoyl peptide. The free peptide elutes in the void volume (3-5minutes).
This difference was evident when the HPLC elution characteristics of fatty acyl peptides were examined. The elution time of a particular acyl-peptide depends strongly on the peptide sequence as well as on the acyl chain attached to that peptide. For example, the elution times of fatty acyl derivatives of GNAAAARR are (in minutes) decanoic acid, 9; dodecanoic acid, 18; myristic acid, 24; and palmitic acid, 30. Elution times for fatty acyl derivatives of GNAAS[^125 I]YRR are 23 and 28 minutes for C12 and C14 fatty acids, respectively (FIG. 2). […] Such a change could alter the biological activity of myristoyl proteins.
as §3

[4] = test system: yeast myristoylprotein of Mr 20 kDa; assay: competition for [3H]myristate incorporation into yeast acylprotein in vivo; format: cell-based; conditions: Saccharomyces cerevisiae, 0.75 h; 100 μM unlabeled fatty acid or analog, 5 μM [3H]myristate, vs control cells; read-out: reduction in incorporation of [3H]myristate into yeast myristoylprotein of Mr 20 kDa
Procedure: (§4) Saccharomyces cerevisiae strain BJ405 [MATα, trpl, prbl, prcl, pep4-3; Hemmings et al., Proc. Natl. Acad. Sci. USA 78, 435-439 (1981)] (previously referred to as JR153) was grown to mid-log phase (OD660 nm =1.0-1.2) in YPD medium (1% yeast extract/2% Bactopeptone/2% Dextrose) at 30° C. in a rotary shaker water bath. Cells were pretreated with Cerulenin at 2 μg/ml for 15 minutes and then incubated for 20-45 minutes with unlabeled myristate, palmitate or fatty acid analog at 100 μM in the presence of either 5 μM [9,10-^3 H(N)]-myristate (22.4 Ci/mmol) or L-[^35 S]methionine (1106 Ci/mmol) at 30 μCi/ml of culture.
(§5) Cells were cooled on ice 5 minutes, pelleted at 10,000×g, then broken and extracted by the method of Towler et al., Proc. Natl. Acad. Sci. USA 83, 2812-2816 (1986). Total protein synthesis was assayed by trichloroacetic acid (TCA) precipitation. Proteins were separated by SDS-12% polyacrylamide gel electrophoresis, and [^3 H]fatty acid incorporation into cellular acyl-proteins was assayed by autoradiography followed by laser densitometry.

[5] = test system: Saccharomyces cerevisiae strain BJ405; assay: growth, toxicity and total protein synthesis in yeast cells; format: cell-based
Procedure: as §4, §5

[6] = as above; format: cell-based; conditions: s. cerevisiae bj405, vs control cells not exposed to exogenous fatty acid, read-out: reduction in total protein synthesis ([35S]methionine into TCA precipitable protein)
Procedure: as §4, §5

[7] = substrate: CCOCCCCCCCCCCC(=O)O; assay: kinetic characterisation of fatty acid analogs as yeast NMT substrates; format: biochemical; conditions: other: peptide GNAAS[125I]YRR varied, fatty acid analog at 15 μM
Text: as §1, §2, §3

[8] = substrate: CCSCCCCCCCCCCC(=O)O; assay: as above; format: biochemical; conditions: other: peptide GNAAS[125I]YRR varied, fatty acid analog at 15 μM
Text: as §1, §2, §3

[9] = substrate: CCCCOCCCCCCCCCCC(=O)O; assay: as above; format: biochemical; conditions: other: peptide GNAAS[125I]YRR varied, fatty acid analog at 15 μM
Text: as §1, §2, §3

[10] = substrate: CCCCCCCCCCCCCC(=O)O; assay: as above; format: biochemical; conditions: other: peptide GNAAS[125I]YRR varied, fatty acid analog at 15 μM
Text: as §1, §2, §3

[11] = substrate: CCCSCCCCCCCCCC(=O)O; assay: as above; format: biochemical; conditions: other: peptide GNAAS[125I]YRR varied, fatty acid analog at 15 μM
Text: as §1, §2, §3

[12] = substrate: CCCOCCCCCCCCCC(=O)O; assay: as above; format: biochemical; conditions: other: peptide GNAAS[125I]YRR varied, fatty acid analog at 15 μM
Text: as §1, §2, §3

[13] = substrate: CCCCCCCCSCCCCC(=O)O; assay: as above; format: biochemical; conditions: other: peptide GNAAS[125I]YRR varied, fatty acid analog at 15 μM
Text: as §1, §2, §3

[14] = substrate: C#CCOCCCCCCCCCC(=O)O; assay: as above; format: biochemical; conditions: other: peptide GNAAS[125I]YRR varied, fatty acid analog at 15 μM
Text: as §1, §2, §3

[15] = substrate: CCCCCCCCOCCCCC(=O)O; assay: as above; format: biochemical; conditions: other: peptide GNAAS[125I]YRR varied, fatty acid analog at 15 μM
Text: as §1, §2, §3

[16] = substrate: COCCCCCCCCCCC(=O)O; assay: as above; format: biochemical; conditions: other: peptide GNAAS[125I]YRR varied, fatty acid analog at 15 μM
Text: as §1, §2, §3

Row | Molecule | partition into water relative to myristate [1] [fold] | Peptide Vm ([2]; peptide GNAAS[125I]YRR varied, fatty acid analog at 15 μM, myristate control = 100%) [%] | Acyl CoA Vm ([2]; radiolabelled peptide at its Km, analog varied, myristate control = 100%) | Km ([2]; radiolabelled peptide at its Km, analog varied, read-out: Acyl CoA Km) [µM] | Elution Time [3] [min] | inhibition at 100 µM [4] [%] | difference in growth rates versus cells treated with 100 μM myristate [5] | inhibition at 100 µM [6] [%] | Km [7] [µM] | Km [8] [µM] | Km [9] [µM] | Km [10] [µM] | Km [11] [µM] | Km [12] [µM] | Km [13] [µM] | Km [14] [µM] | Km [15] [µM] | Km [16] [µM]
1 | COCCCCCCCCCCCC(=O)O [E, 12-(Methoxy)dodecanoic acid] | 20 | 177 | ~ 110% | ~2 | 12 to 13 | 35 to 60 | No difference | 10 to 15 |  |  |  |  |  |  |  |  |  | 
2 | B1 |  |  |  |  |  |  |  |  | 14.8 | 19 | 42 | 10 | 47 | 34 | 11.5 | 28 | 31 | 47.3
